B1: peptide 56 (peptide)
peptide: Ac-ACYLACIEALIRAAQEQQEKNEAALR-NH2
modifications: linker 2-6 via pXylylene
SMILES: CC[C@H](C)[C@H](NC(=O)[C@H](CC(C)C)NC(=O)[C@H](C)NC(=O)[C@H](CCC(=O)O)NC(=O)[C@@H](NC(=O)[C@@H]1CSCc2ccc(cc2)CSC[C@H](NC(=O)[C@H](C)NC(C)=O)C(=O)N[C@@H](Cc2ccc(O)cc2)C(=O)N[C@@H](CC(C)C)C(=O)N[C@@H](C)C(=O)N1)[C@@H](C)CC)C(=O)N[C@@H](CCCNC(=N)N)C(=O)N[C@@H](C)C(=O)N[C@@H](C)C(=O)N[C@@H](CCC(N)=O)C(=O)N[C@@H](CCC(=O)O)C(=O)N[C@@H](CCC(N)=O)C(=O)N[C@@H](CCC(N)=O)C(=O)N[C@@H](CCC(=O)O)C(=O)N[C@@H](CCCCN)C(=O)N[C@@H](CC(N)=O)C(=O)N[C@@H](CCC(=O)O)C(=O)N[C@@H](C)C(=O)N[C@@H](C)C(=O)N[C@@H](CC(C)C)C(=O)N[C@@H](CCCNC(=N)N)C(N)=O
B2: peptide 57 (peptide)
peptide: Ac-ACYIACIEALIRAAQEQQEKNEAALR-NH2
modifications: linker 2-6 via pXylylene
SMILES: CC[C@H](C)[C@@H]1NC(=O)[C@H](Cc2ccc(O)cc2)NC(=O)[C@@H](NC(=O)[C@H](C)NC(C)=O)CSCc2ccc(cc2)CSC[C@@H](C(=O)N[C@H](C(=O)N[C@@H](CCC(=O)O)C(=O)N[C@@H](C)C(=O)N[C@@H](CC(C)C)C(=O)N[C@H](C(=O)N[C@@H](CCCNC(=N)N)C(=O)N[C@@H](C)C(=O)N[C@@H](C)C(=O)N[C@@H](CCC(N)=O)C(=O)N[C@@H](CCC(=O)O)C(=O)N[C@@H](CCC(N)=O)C(=O)N[C@@H](CCC(N)=O)C(=O)N[C@@H](CCC(=O)O)C(=O)N[C@@H](CCCCN)C(=O)N[C@@H](CC(N)=O)C(=O)N[C@@H](CCC(=O)O)C(=O)N[C@@H](C)C(=O)N[C@@H](C)C(=O)N[C@@H](CC(C)C)C(=O)N[C@@H](CCCNC(=N)N)C(N)=O)[C@@H](C)CC)[C@@H](C)CC)NC(=O)[C@H](C)NC1=O
B3: peptide 55 (peptide)
peptide: Suc-ENYLRLIEELIRKAQEQQEKNEAALRGSGK(Palmitoyl)-NH2
SMILES: CCCCCCCCCCCCCCCC(=O)NCCCC[C@H](NC(=O)CNC(=O)[C@H](CO)NC(=O)CNC(=O)[C@H](CCCNC(=N)N)NC(=O)[C@H](CC(C)C)NC(=O)[C@H](C)NC(=O)[C@H](C)NC(=O)[C@H](CCC(=O)O)NC(=O)[C@H](CC(N)=O)NC(=O)[C@H](CCCCN)NC(=O)[C@H](CCC(=O)O)NC(=O)[C@H](CCC(N)=O)NC(=O)[C@H](CCC(N)=O)NC(=O)[C@H](CCC(=O)O)NC(=O)[C@H](CCC(N)=O)NC(=O)[C@H](C)NC(=O)[C@H](CCCCN)NC(=O)[C@H](CCCNC(=N)N)NC(=O)[C@@H](NC(=O)[C@H](CC(C)C)NC(=O)[C@H](CCC(=O)O)NC(=O)[C@H](CCC(=O)O)NC(=O)[C@@H](NC(=O)[C@H](CC(C)C)NC(=O)[C@H](CCCNC(=N)N)NC(=O)[C@H](CC(C)C)NC(=O)[C@H](Cc1ccc(O)cc1)NC(=O)[C@H](CC(N)=O)NC(=O)[C@H](CCC(=O)O)NC(=O)CCC(=O)O)[C@@H](C)CC)[C@@H](C)CC)C(N)=O

These results are taken from US20140357577A1, “HIV Membrane Fusion Inhibitors” (priority 2011, published 2014).

Starred links: 1 amine or outer side, 2 acyl side, 3 side chain; linkers in the order of their positions; H or OH if unused. Positions of bridges follow the written chain, without caps; N, C: chain ends. Non-standard residues stand in square brackets, D forms with d. *: point of attachment. pXylylene = c1cc(C[*:2])ccc1C[*:1]; Palmitoyl = CCCCCCCCCCCCCCCC(=O)*; tBuAla = CC(C)(C)C[C@H](N)C(=O)O; Cha = N[C@@H](CC1CCCCC1)C(=O)O; Suc = O=C(CCC(=O)[*:2])[*:1]; B1 = not defined here

This test concerns the target gp41 of HIV-1 strain HXB2D with mutation V38A (HIV-1 strain HXB2D, UniProt P04578). The test is described as follows: cell-based or functional assay.
B1: the “fold change in EC50, HIV-HXB2D V38A mutant” value was determined as 61 fold.

B2: the “fold change in EC50, HIV-HXB2D V38A mutant” value is 23 fold. For Ac-ANYAALIEALIRAAQEQQEKNEAALR-NH2 [peptide 2] the value was 61 fold. Then Ac-ACY[Cha]ACIEALIRAAQEQQEKNEAALR-NH2 (linker 2-6 via B1; reading uncertain) [peptide 59], with 18 fold; and B3, with 1 fold; and Ac-ACY[tBuAla]ACIEALIRAAQEQQEKNEAALR-NH2 (linker 2-6 via B1; reading uncertain) [peptide 60], with 18 fold.
